Assay [1] deals with membrane receptor interacting with BLV (unknown) (human). As to the kind of experiment: flow cytometry, tagged RBD on blood neutrophils of one CF patient.
For assay [2] the target is unchanged. Description: flow cytometry, tagged RBD on sputum neutrophils of one CF patient.

For the substance “Bovine Leukaemia Virus receptor-binding domain (BLV RBD) (from UniProt P25507 34-215)”, the figures for the deltaGeomean of fluorescence in assay [1] and in assay [2] were 0 and 140, respectively.

For the origin of these results see US20130260394A1.
